These results are taken from publication PMC11323494, “A network of acetyl phosphate-dependent modification modulates c-di-AMP homeostasis in Actinobacteria” (mBio, 2024).

Data set [1] addresses T1, DisA (Saccharopolyspora erythraea, UniProt A4F6V9).
T1 construct: recombinant His-tagged, pET28a(+), E. coli BL21(DE3); octamer
T1 sequence (A4F6V9 1-370): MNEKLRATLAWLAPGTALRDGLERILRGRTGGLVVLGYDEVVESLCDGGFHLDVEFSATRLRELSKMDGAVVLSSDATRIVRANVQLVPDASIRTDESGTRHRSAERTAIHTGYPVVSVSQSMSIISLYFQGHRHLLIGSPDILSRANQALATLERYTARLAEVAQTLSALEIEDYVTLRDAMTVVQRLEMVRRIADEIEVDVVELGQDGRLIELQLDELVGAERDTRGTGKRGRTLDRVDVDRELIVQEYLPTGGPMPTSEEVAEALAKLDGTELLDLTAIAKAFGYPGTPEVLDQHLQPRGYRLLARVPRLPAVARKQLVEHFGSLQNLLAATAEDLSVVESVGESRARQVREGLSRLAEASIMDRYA
The experiment in a line: HPLC of c-di-AMP formed (DAC assay). The following applies: 100 mM ATP, 10 mM MgCl2, 0.1 M NaCl, 40 mM Tris pH 7.5, 10 uM enzyme. The data set is classed as biochemical.

In data set [2] the target is T1, DisA. The experiment in a line: DAC activity by HPLC after […] h preincubation; acetylation by anti-AcK blot and LC-MS/MS. The class given is biochemical. The following applies: covalent; lysine acetylation (K66, K284); 10 mM AcP, 5 h, 37 C, 50 mM HEPES pH 7.5; substrate ATP.
The target of another data set is T2, DasR (Saccharopolyspora erythraea, UniProt A4F723).
T2 construct: gene SACE_0500; recombinant His-tagged, pET28a(+), E. coli BL21(DE3); dimer
T2 sequence (A4F723 1-251): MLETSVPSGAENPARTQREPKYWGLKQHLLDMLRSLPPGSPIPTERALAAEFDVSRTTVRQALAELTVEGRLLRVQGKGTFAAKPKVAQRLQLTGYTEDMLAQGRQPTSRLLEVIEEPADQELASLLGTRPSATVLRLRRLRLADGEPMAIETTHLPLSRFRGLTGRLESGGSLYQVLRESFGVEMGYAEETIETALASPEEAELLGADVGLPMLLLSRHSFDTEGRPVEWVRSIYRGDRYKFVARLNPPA
Nature of the data set: in vitro acetylation, anti-AcK Western blot. The data set is classed as binding. To be noted: covalent; lysine acetylation; 10 mM AcP, 0-5 h, 37 C, 50 mM HEPES pH 7.5. In general terms: A western blot detects proteins with antibodies after separation by electrophoresis.

In data set [3] the target is DNA integrity scanning protein (DisA), nonacetylated (Saccharopolyspora erythraea) (UniProt A4F6V9). The experiment in a line: cross-linking; purified protein in 20 mM bicine pH 8.0, 150 mM NaCl, 10 mM MgCl2, 0.2% n-octyl-beta-D-glucopyranoside, 8% glycerol; 1 mM disuccinimidyl suberate, room temperature, 1 h; 15% SDS-PAGE, Coomassie blue; bands quantified by densitometry; self-association (DisA monomer and octamer, DasR monomer and dimer).

In data set [4] the target is DasR, nonacetylated (GntR-family global regulator) (Saccharopolyspora erythraea). The description is as above.
The next data set has as its target DasR K78Q variant. Nature of the data set: cross-linking, gel band densitometry (ImageJ). To be noted: parent: 100.
A further data set has as its target DasR^K78R. Nature of the data set: cross-linking, gel band densitometry (ImageJ). To be noted: parent: 100.
The test system of data set [5] is DasR WT (Saccharopolyspora erythraea NRRL2338). Nature of the data set: BLI. The following applies: BLI: 10 mM HEPES pH 8.0, 2 mM MgCl2, 0.1 mM EDTA, 200 mM KCl (running buffer + 10 µg/mL BSA, 0.02% Tween-20), SA sensor, temperature not stated; EMSA: 5 nM …. Background: A gel shift assay detects complexes by their altered migration in electrophoresis.

For `Nc1ncnc2c1ncn2[C@@H]1O[C@H](COP(=O)(O)OP(=O)(O)OP(=O)(O)O)[C@@H](O)[C@H]1O` [ATP], the “HPLC of c-di-AMP formed (DAC assay)” value on DisA [1] is listed as “started by the addition of 100-mM ATP”.

In the case of `CC(=O)OP(=O)(O)O` [acetyl phosphate], at DisA [2], the “DAC activity reduction (%)” value is given as ~ 75%. Moreover, the “in vitro acetylation, anti-AcK Western blot” value at DasR was “In vitro acetylation further confirmed that DasR was acetylated by AcP”.

For orientation: stoichiometry N means the number of molecules, sites or subunits per partner or assembly. Consider “DNA integrity scanning protein (DisA), nonacetylated (from UniProt A4F6V9 1-370) (enzyme)”, for which, in data set [3], the stoichiometry N came to 8.

“DasR, nonacetylated (GntR-family global regulator) (natural protein)” displayed a stoichiometry N in data set [4] of 2.

Turning to “DasR, nonacetylated (GntR-family global regulator) K78Q”, in the data set with DasR K78Q variant, the other: relative monomer level (relative monomer level (WT = 100)) turned out to be 230 and the percent of parent (relative dimer level (WT = 100)) stood at 42.

“DasR, nonacetylated (GntR-family global regulator) K78R”: in the data set with DasR^K78R, the other: relative monomer level (relative monomer level (WT = 100)) came to 140 and the percent of parent (relative dimer level (WT = 100)) came to 89.

What is called Kd is the constant that tells how readily two partners part at equilibrium. Take disA promoter probe: the Kd in data set [5] turned out to be 400 nM.
